Assay results taken from IntAct's records for PubMed 20553494.

B1: Homeobox protein Meis2 (Homo sapiens), O14770-4 (parent)
chain: MAQRYDELPHYGGMDGVGVPASMYGDPHAPRPIPPVHHLNHGPPLHATQHYGAHAPHPNVMPASMGSAVNDALKRDKDAIYGHPLFPLLALVFEKCELATCTPREPGVAGGDVCSSDSFNEDIAVFAKQVRAEKPLFSSNPELDNLMIQAIQVLRFHLLELEKVHELCDNFCHRYISCLKGKMPIDLVIDERDGSSKSDHEELSGSSTNLADHNPSSWRDHDDATSTHSAGTPGPSSGGHASQSGDNSSEQGDGLDNSVASPGTGDDDDPDKDKKRQKKRGIFPKVATNIMRAWLFQHLTHPYPSEEQKKQLAQDTGLTILQVNNWFINARRRIVQPMIDQSNRAVSQGAAYSPEGQPMGSFVLDGQQHMGIRPAGLQSMPGDYVSQGGPMGMSMAQPSYTPPQMTPHPTQLRHGPPMHSYLPSHPHHPAMMMHGGPPTHPGMTMSAQSPTMLNSVDPNVGGQVMDIHAQ
partner: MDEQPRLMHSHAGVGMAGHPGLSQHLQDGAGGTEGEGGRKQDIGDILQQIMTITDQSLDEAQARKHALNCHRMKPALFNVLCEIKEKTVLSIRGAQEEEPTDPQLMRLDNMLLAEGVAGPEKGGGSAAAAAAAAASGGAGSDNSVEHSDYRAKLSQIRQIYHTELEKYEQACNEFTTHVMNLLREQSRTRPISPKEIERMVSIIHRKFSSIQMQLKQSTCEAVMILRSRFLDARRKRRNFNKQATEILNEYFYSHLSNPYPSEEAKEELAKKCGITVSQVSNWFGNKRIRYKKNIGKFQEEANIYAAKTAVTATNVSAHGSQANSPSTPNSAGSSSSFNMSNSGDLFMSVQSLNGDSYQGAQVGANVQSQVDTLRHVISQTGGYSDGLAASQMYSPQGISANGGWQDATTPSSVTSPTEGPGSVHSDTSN

Variants of: B1
Conditions: with pbx1_human PBX1, P40424

Variant	effect of a mutation on the interaction
E160A	decreasing interaction
E162A	decreasing interaction
K163A	decreasing interaction

Variants of: B1
Conditions: with pbx1_human PBX1, P40424
Remark: another data set of the same source

Variant	effect of a mutation on the interaction
E97T	decreasing interaction
C96G	decreasing interaction
E94N	decreasing interaction
K95N	decreasing interaction

Variants of: B1
Conditions: with pbx1_human PBX1, P40424
Remark: another data set of the same source

Variant	effect of a mutation on the interaction
L88A	decreasing interaction
L85A	decreasing interaction

Variants of: B1
Conditions: with pbx1_human PBX1, P40424
Remark: another data set of the same source

Variant	effect of a mutation on the interaction
L158A	decreasing interaction
L159A	decreasing interaction
L161A	decreasing interaction

Variants of: B1
Conditions: with pbx1_human PBX1, P40424
Remark: another data set of the same source

Variant	effect of a mutation on the interaction
L154A	decreasing interaction
I151A	decreasing interaction
